Measured values from publication doi:10.1101/2023.01.18.524603.

What was measured:
Test in all cases: EMSA
Conditions in all cases: EMSA: 25 mM Tris-HCl pH 7.4, 100 mM NaCl, 5 ng DNA in 10 ul, 20 min, room temperature, AFM: 25 mM HEPES-NaOH pH 7.4, 5 mM MgCl2, 50 mM NaCl, 10% glycerol
[1] = test system: Rec114(325-428)-Mei4(1-90) (Saccharomyces cerevisiae)
[2] = test system: Rec114(386-428)-Mei4N (Saccharomyces cerevisiae)
[3] = test system: Rec114(388-428) K399A/R400A-Mei4N (Saccharomyces cerevisiae)
[4] = test system: Rec114(388-428) K403A/K407A-Mei4N (Saccharomyces cerevisiae)
[5] = test system: Rec114(388-428) K417A/K424A-Mei4N (Saccharomyces cerevisiae)
[6] = test system: Rec114(388-428) R395A/K396A-Mei4N (Saccharomyces cerevisiae)
[7] = test system: Rec114(388-428)-Mei4(13-43) (Saccharomyces cerevisiae)
[8] = test system: Rec114(388-428)-Mei4N (Saccharomyces cerevisiae)
[9] = target: T1, Rec114C-Mei4N (RM-TDB) (Saccharomyces cerevisiae) (UniProt P32841+P29467)
T1 sequence 1: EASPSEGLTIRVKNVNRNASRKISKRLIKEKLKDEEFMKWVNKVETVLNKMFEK
T1 sequence 2: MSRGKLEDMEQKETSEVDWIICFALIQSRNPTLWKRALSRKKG

[10] = test system: Rec114C-Mei4N-ybbR (Saccharomyces cerevisiae)
[11] = test system: Rec114C-Mei4N-ybbR-LD650 (Saccharomyces cerevisiae)
[12] = test system: Rec114C (Saccharomyces cerevisiae)

Substance	K half [1]	K half [2]	K half [3]	K half [4]	K half [5]	K half [6]	K half [7]	K half [8]	K half [9]	K half [10]	K half [11]	K half [12]
150-bp linear DNA	90 nM	110 nM	2000 nM	1000 nM	900 nM	1000 nM	100 nM	110 nM	90 nM	90 nM	90 nM	
1000-bp linear DNA									80 nM			300 nM
